Patent US20160053277A1, “Compositions Having Dicamba Decarboxylase Activity and Methods of Use” (PIONEER HI-BRED INTERNATIONAL, INC., priority 2013, published 2016)

B1: R212Q: point mutant of SEQ ID NO: 109 (protein)
chain: MAQGKVALEEHFAIPETLQDSAGFVPGDYWKELQHRLLDIQDTRLKLMDAHGIETMILSLNAPAVQAIPDRRKAIEIARRANDVLAEECAKRPDRFLAFAALPLQDPDAATEELQRCVNDLGFVGALVNGFSQEGDGQTPLYYDLPQYRPFWGEVEKLDVPFYLHPRNPLPQDSRIYDGHPWLLGPTWAFAQETAVHALRLMASGLFDEHPQLNIILGHMGEGLPYMMWRIDHRVAWVKLPPRYPAKRRFMDYFNENFHITTSGNFRTQTLIDAILEIGADRILFSTDWPFENIDHASDWFNATSIAEADRVKIGRTNARRLFKLDGA
modifications: Dicamba decarboxylase variant clone: DC.4.032
B2: N214Q: point mutant of SEQ ID NO: 109 (protein)
chain: MAQGKVALEEHFAIPETLQDSAGFVPGDYWKELQHRLLDIQDTRLKLMDAHGIETMILSLNAPAVQAIPDRRKAIEIARRANDVLAEECAKRPDRFLAFAALPLQDPDAATEELQRCVNDLGFVGALVNGFSQEGDGQTPLYYDLPQYRPFWGEVEKLDVPFYLHPRNPLPQDSRIYDGHPWLLGPTWAFAQETAVHALRLMASGLFDEHPRLQIILGHMGEGLPYMMWRIDHRVAWVKLPPRYPAKRRFMDYFNENFHITTSGNFRTQTLIDAILEIGADRILFSTDWPFENIDHASDWFNATSIAEADRVKIGRTNARRLFKLDGA
modifications: Dicamba decarboxylase variant clone: DC.4.032
B3: W229Y: point mutant of SEQ ID NO: 109 (protein)
chain: MAQGKVALEEHFAIPETLQDSAGFVPGDYWKELQHRLLDIQDTRLKLMDAHGIETMILSLNAPAVQAIPDRRKAIEIARRANDVLAEECAKRPDRFLAFAALPLQDPDAATEELQRCVNDLGFVGALVNGFSQEGDGQTPLYYDLPQYRPFWGEVEKLDVPFYLHPRNPLPQDSRIYDGHPWLLGPTWAFAQETAVHALRLMASGLFDEHPRLNIILGHMGEGLPYMMYRIDHRVAWVKLPPRYPAKRRFMDYFNENFHITTSGNFRTQTLIDAILEIGADRILFSTDWPFENIDHASDWFNATSIAEADRVKIGRTNARRLFKLDGA
modifications: Dicamba decarboxylase variant clone: DC.4.032
B4: V235I: point mutant of SEQ ID NO: 109 (protein)
chain: MAQGKVALEEHFAIPETLQDSAGFVPGDYWKELQHRLLDIQDTRLKLMDAHGIETMILSLNAPAVQAIPDRRKAIEIARRANDVLAEECAKRPDRFLAFAALPLQDPDAATEELQRCVNDLGFVGALVNGFSQEGDGQTPLYYDLPQYRPFWGEVEKLDVPFYLHPRNPLPQDSRIYDGHPWLLGPTWAFAQETAVHALRLMASGLFDEHPRLNIILGHMGEGLPYMMWRIDHRIAWVKLPPRYPAKRRFMDYFNENFHITTSGNFRTQTLIDAILEIGADRILFSTDWPFENIDHASDWFNATSIAEADRVKIGRTNARRLFKLDGA
modifications: Dicamba decarboxylase variant clone: DC.4.032

Assay: Saturation mutagenesis of SEQ ID NO:109: dicamba decarboxylation activity of point mutants (carbon dioxide released)
[1] = dicamba decarboxylation activity of point mutants of SEQ ID NO: 109, relative to unchanged template
[2] = point mutation in SEQ ID NO: 109

| Molecule | Average Activity (Fold of SEQ ID NO: 109) [1] | Average Activity (Fold of SEQ ID NO: 109) [2] |
| --- | --- | --- |
| B1 | 1.7 Fold of SEQ ID NO: 109 | 1.7 Fold of SEQ ID NO: 109 |
| B2 | 1.8 Fold of SEQ ID NO: 109 | 1.8 Fold of SEQ ID NO: 109 |
| B3 | 1.7 Fold of SEQ ID NO: 109 | 1.7 Fold of SEQ ID NO: 109 |
| B4 | 1.8 Fold of SEQ ID NO: 109 | 1.8 Fold of SEQ ID NO: 109 |
